B1: rMASP-1 (enzyme, UniProt P48740 20-699, looked up)
chain: HTVELNNMFGQIQSPGYPDSYPSDSEVTWNITVPDGFRIKLYFMHFNLESSYLCEYDYVKVETEDQVLATFCGRETTDTEQTPGQEVVLSPGSFMSITFRSDFSNEERFTGFDAHYMAVDVDECKEREDEELSCDHYCHNYIGGYYCSCRFGYILHTDNRTCRVECSDNLFTQRTGVITSPDFPNPYPKSSECLYTIELEEGFMVNLQFEDIFDIEDHPEVPCPYDYIKIKVGPKVLGPFCGEKAPEPISTQSHSVLILFHSDNSGENRGWRLSYRAAGNECPELQPPVHGKIEPSQAKYFFKDQVLVSCDTGYKVLKDNVEMDTFQIECLKDGTWSNKIPTCKIVDCRAPGELEHGLITFSTRNNLTTYKSEIKYSCQEPYYKMLNNNTGIYTCSAQGVWMNKVLGRSLPTCLPVCGLPKFSRKLMARIFNGRPAQKGTTPWIAMLSHLNGQPFCGGSLLGSSWIVTAAHCLHQSLDPEDPTLRDSDLLSPSDFKIILGKHWRLRSDENEQHLGVKHTTLHPQYDPNTFENDVALVELLESPVLNAFVMPICLPEGPQQEGAMVIVSGWGKQFLQRFPETLMEIEIPIVDHSTCQKAYAPLKKKVTRDMICAGEKEGGKDACAGDSGGPMVTLNRERGQWYLVGTVSWGDDCGKKDRYGVYSYIHHNKDWIQRVTGVRN
B2: Zymogen rMASP-3 (enzyme, human, UniProt P48740-2 20-728, looked up)
chain: HTVELNNMFGQIQSPGYPDSYPSDSEVTWNITVPDGFRIKLYFMHFNLESSYLCEYDYVKVETEDQVLATFCGRETTDTEQTPGQEVVLSPGSFMSITFRSDFSNEERFTGFDAHYMAVDVDECKEREDEELSCDHYCHNYIGGYYCSCRFGYILHTDNRTCRVECSDNLFTQRTGVITSPDFPNPYPKSSECLYTIELEEGFMVNLQFEDIFDIEDHPEVPCPYDYIKIKVGPKVLGPFCGEKAPEPISTQSHSVLILFHSDNSGENRGWRLSYRAAGNECPELQPPVHGKIEPSQAKYFFKDQVLVSCDTGYKVLKDNVEMDTFQIECLKDGTWSNKIPTCKIVDCRAPGELEHGLITFSTRNNLTTYKSEIKYSCQEPYYKMLNNNTGIYTCSAQGVWMNKVLGRSLPTCLPECGQPSRSLPSLVKRIIGGRNAEPGLFPWQALIVVEDTSRVPNDKWFGSGALLSASWILTAAHVLRSQRRDTTVIPVSKEHVTVYLGLHDVRDKSGAVNSSAARVVLHPDFNIQNYNHDIALVQLQEPVPLGPHVMPVCLPRLEPEGPAPHMLGLVAGWGISNPNVTVDEIISSGTRTLSDVLQYVKLPVVPHAECKTSYESRSGNYSVTENMFCAGYYEGGKDTCLGDSGGAFVIFDDLSQRWVVQGLVSWGGPEECGSKQVYGVYTKVSNYVDWVWEQMGLPQSVVEPQVER
modifications: RED-tris-NTA dye on the His tag (in the MST only)
B3: rMAP-1 (natural protein, UniProt P48740-3 20-380, looked up)
chain: HTVELNNMFGQIQSPGYPDSYPSDSEVTWNITVPDGFRIKLYFMHFNLESSYLCEYDYVKVETEDQVLATFCGRETTDTEQTPGQEVVLSPGSFMSITFRSDFSNEERFTGFDAHYMAVDVDECKEREDEELSCDHYCHNYIGGYYCSCRFGYILHTDNRTCRVECSDNLFTQRTGVITSPDFPNPYPKSSECLYTIELEEGFMVNLQFEDIFDIEDHPEVPCPYDYIKIKVGPKVLGPFCGEKAPEPISTQSHSVLILFHSDNSGENRGWRLSYRAAGNECPELQPPVHGKIEPSQAKYFFKDQVLVSCDTGYKVLKDNVEMDTFQIECLKDGTWSNKIPTCKKNEIDLESELKSEQVTE

Tests used:
[1] = biological target: T1, C1q (human (endogenous in normal human serum), UniProt P02745 23-245; P02746 28-253; P02747 29-245); assay: ELISA
T1 sequence (P02745 23-245, chain 1 of 3): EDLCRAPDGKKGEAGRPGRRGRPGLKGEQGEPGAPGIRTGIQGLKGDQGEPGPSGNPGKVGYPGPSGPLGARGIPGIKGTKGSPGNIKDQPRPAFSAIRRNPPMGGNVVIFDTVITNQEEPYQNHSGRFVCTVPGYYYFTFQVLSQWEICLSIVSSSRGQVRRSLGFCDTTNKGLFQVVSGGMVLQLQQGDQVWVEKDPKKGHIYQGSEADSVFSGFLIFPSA
T1 sequence (P02746 28-253, chain 2 of 3): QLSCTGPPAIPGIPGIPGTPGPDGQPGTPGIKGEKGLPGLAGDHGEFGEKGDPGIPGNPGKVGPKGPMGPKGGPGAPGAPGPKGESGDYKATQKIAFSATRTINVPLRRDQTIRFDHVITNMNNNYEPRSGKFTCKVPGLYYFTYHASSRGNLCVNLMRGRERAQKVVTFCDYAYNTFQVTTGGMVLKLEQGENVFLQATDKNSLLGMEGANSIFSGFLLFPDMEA
T1 sequence (P02747 29-245, chain 3 of 3): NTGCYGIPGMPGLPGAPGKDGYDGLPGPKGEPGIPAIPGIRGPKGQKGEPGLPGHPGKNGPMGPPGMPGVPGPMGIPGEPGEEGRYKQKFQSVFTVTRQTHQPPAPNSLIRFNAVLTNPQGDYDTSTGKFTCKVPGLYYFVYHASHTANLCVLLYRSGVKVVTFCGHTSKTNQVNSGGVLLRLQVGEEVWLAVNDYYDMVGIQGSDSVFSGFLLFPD

[2] = biological target: T1, C1q; assay: MST

| Binder | binding result [1] | Kd [2] [nM] |
| --- | --- | --- |
| B1 | binds | – |
| B2 | – | 69.6 |
| B3 | binds | – |

Source: article doi:10.1101/2024.03.15.584944 (bioRxiv, 2024)
